Reference: the supplement of paper PMC7125110
± gives the standard error. For some assays here: This sample holds only a part of the variants without activity.

B1: glmS ribozyme (parent)
chain: AUAAAAGCGCCAGAACUACAGAAAUGUAGUUGACGAGGAGGAGGUUUAUCGAAUUUUCGGCGGAUGCCUCCAAA

Tests used:
Conditions in all cases: with glucosamine-6-phosphate
glucosamine-6-phosphate [1] = variants of: B1; test: kcat; higher = faster cleavage; RNA array
In short: (§1)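 Using a hybridised Cy3 probe at 37 °C, barcoded ribozyme variants transcribed in situ by E. coli RNA polymerase on sequenced MiSeq chips were monitored across tiles imaged over ~14 h. The flow contained glucosamine-6-phosphate from 40 μM to 10 mM in HEPES/KCl/Mg(OAc)2 buffer. Signals were normalised to baseline and to non-cleaving reference variants before per-tile medians were fit to one- or two-exponential decays to yield kobs. Weighted Michaelis–Menten fits across concentrations gave kcat and KM.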

glucosamine-6-phosphate [2] = variants of: B1; test: self-cleavage kobs at 40 uM GlcN6P; higher = faster cleavage; RNA array
In short: as §1

glucosamine-6-phosphate [3] = variants of: B1; test: self-cleavage kobs at 640 uM GlcN6P; higher = faster cleavage; RNA array
In short: as §1

glucosamine-6-phosphate [4] = variants of: B1; test: self-cleavage kobs at 2500 uM GlcN6P; higher = faster cleavage; RNA array
In short: as §1

glucosamine-6-phosphate [5] = variants of: B1; test: self-cleavage kobs at 10000 uM GlcN6P; higher = faster cleavage; RNA array
In short: as §1

glucosamine-6-phosphate [6] = variants of: B1; test: KM; higher = weaker cofactor use; RNA array
In short: as §1

glucosamine-6-phosphate [7] = variants of: B1; test: self-cleavage kobs at 160 uM GlcN6P; higher = faster cleavage; RNA array
In short: as §1

| Variant | kcat (glucosamine-6-phosphate [1]) [s⁻¹] | self-cleavage kobs at 40 uM GlcN6P (glucosamine-6-phosphate [2]) [s⁻¹] | self-cleavage kobs at 640 uM GlcN6P (glucosamine-6-phosphate [3]) [s⁻¹] | self-cleavage kobs at 2500 uM GlcN6P (glucosamine-6-phosphate [4]) [s⁻¹] | self-cleavage kobs at 10000 uM GlcN6P (glucosamine-6-phosphate [5]) [s⁻¹] | KM (glucosamine-6-phosphate [6]) [µM] | self-cleavage kobs at 160 uM GlcN6P (glucosamine-6-phosphate [7]) [s⁻¹] |
| --- | --- | --- | --- | --- | --- | --- | --- |
| C11U A12U U56C | 0.00124 ± 0.00036 | 5.74e-05 ± 1.7e-05 | 0.000258 ± 5e-05 | 0.000639 ± 0.00015 | 0.00106 ± 0.00015 |  |  |
| C10U C71U | 3.48e-05 ± 5.8e-06 | < 1e-05 |  | 1.75e-05 ± 5.3e-06 | 3.05e-05 ± 5.4e-06 |  |  |
| C16U U56G C68G | 5.74e-05 ± 1.5e-05 |  | 9.61e-05 ± 2.8e-05 |  | 6.1e-05 ± 1.3e-05 |  |  |
| G37A G59A | < 1e-05 | < 1e-05 |  |  |  |  |  |
| A53U U54G | 0.0452 ± 0.016 | 0.000521 ± 4.8e-05 | 0.00468 ± 0.001 | 0.0161 ± 0.0061 | 0.0354 ± 0.0056 | 3780 ± 1600 |  |
| U31C U54C | 0.00689 ± 0.0027 | 0.000101 ± 1.8e-05 | 0.00134 ± 0.00024 | 0.00166 ± 0.00057 | 0.00579 ± 0.00087 |  | 0.000254 ± 4.6e-05 |
| U49G U54A | 0.00122 ± 0.00034 |  | 0.000176 ± 3.6e-05 |  | 0.000941 ± 0.00014 | 3170 ± 1400 | 9.47e-05 ± 2.3e-05 |
| A53G C67U | 0.0134 ± 0.0047 | 0.000512 ± 6.3e-05 | 0.00617 ± 0.0011 | 0.0175 ± 0.0045 | 0.0111 ± 0.0015 | 1400 ± 680 | 0.000969 ± 0.00016 |
| A64C C71U | 0.00012 ± 8.4e-06 |  |  | 6.58e-05 ± 1.3e-05 | 9.59e-05 ± 1.1e-05 | 2400 ± 500 |  |
| U30C C50G | 0.000183 ± 3.9e-05 | 0.000126 ± 3.1e-05 | 0.000179 ± 4.8e-05 | 0.000149 ± 3.8e-05 | 0.000318 ± 9.9e-05 |  | 0.000338 ± 0.00011 |
| A15C C16U A53G U55A C68G | 3.32e-05 ± 6.7e-06 |  |  | 3.96e-05 ± 1.4e-05 |  |  | 3.89e-05 ± 1.8e-05 |
| A14U G41C | 8.09e-05 ± 1.1e-06 |  |  | 4.2e-05 ± 1.3e-05 | 6.58e-05 ± 1.4e-05 | 2290 ± 95 |  |
| C67U C71A | 0.000182 ± 3.8e-05 |  | 6.34e-05 ± 9e-06 | 0.000131 ± 1.6e-05 | 0.000168 ± 2.2e-05 |  | 6.95e-05 ± 1.8e-05 |
| A36C A52U U56G U65A U69A | 2.16e-05 ± 2.7e-06 |  |  |  |  |  |  |
| U57A U69A | 3.14e-05 ± 6.3e-06 |  |  | 3.75e-05 ± 1.1e-05 |  |  |  |
| A14C C58G | 0.000165 ± 6.6e-05 |  | 3.92e-05 ± 1e-05 | 4.23e-05 ± 8.3e-06 | 0.000108 ± 1.2e-05 |  |  |
| C10U U54G | < 1e-05 | < 1e-05 |  |  |  |  |  |
| G44U U47A | 0.00016 ± 1.2e-05 |  | 4.97e-05 ± 2.4e-05 | 9.01e-05 ± 1.7e-05 | 0.000136 ± 1.6e-05 | 1850 ± 460 |  |
